Data on 1 molecule can be found in publication PMC7723274.

No end group written: not given here. Bounds are passed on as bounds.

For assay [1], the target named is HAdV-64 virion (E3 deleted, replication-competent HAdV-64 virus containing a CMV-eGFP ORF, WT HAdV-64 capsid) (human adenovirus 64 (HAdV-64)).
For assay [2], the target named is hexon HVR1 chimera virion (HAdV-5 with hexon HVR1 replaced by that of HAdV-64) (human adenovirus 5 (HAdV-5) | human adenovirus 64 (HAdV-64)) (UniProt P04133).
Assay [3] addresses HAdV-5 virion (E1/E3-deleted, replication-defective HAdV-5 vector with an eGFP cassette) (human adenovirus 5 (HAdV-5)) (UniProt P04133).
In assay [4] the target is C4 vertex chimera virion (HAdV-5 with penton base residues 288 to 571 from HAdV-64 and the DTET to GYAR mutation in fiber) (human adenovirus 5 (HAdV-5) | human adenovirus 64 (HAdV-64)) (UniProt P04133).
Assay [5] concerns the target HAdV-5 virion (E1/E3-deleted, replication-defective HAdV-5 vector with an eGFP cassette) (human adenovirus 5 (HAdV-5)) (UniProt P04133). This is another data set of the same source.
Assay [6] concerns the target hexon HVR1/C4 vertex chimera virion (C4 chimera with hexon HVR1 replaced by that of HAdV-64) (human adenovirus 5 (HAdV-5) | human adenovirus 64 (HAdV-64)) (UniProt P04133).
For assay [7], the target named is hexon HVR1 chimera virion (HAdV-5 with hexon HVR1 replaced by that of HAdV-64) (human adenovirus 5 (HAdV-5) | human adenovirus 64 (HAdV-64)) (UniProt P04133). This is another data set of the same source.
Assay [8] addresses HAdV-64 virion (E3 deleted, replication-competent HAdV-64 virus containing a CMV-eGFP ORF, WT HAdV-64 capsid) (human adenovirus 64 (HAdV-64)). Kind of assay: co-sedimentation; 2.5 μg purified virus with 20 μM HD5 in 150 mM NaCl, 20 mM Tris, 5% glycerol, 1 mM MgCl2, on ice 45 min; discontinuous Histodenz gradient, 4°C, virus band collected; SDS-PAGE, fluorescent stain; HD5 normalised to proteins V and VII and read against a standard curve.

For assay [9], the target named is C4 vertex chimera virion (HAdV-5 with penton base residues 288 to 571 from HAdV-64 and the DTET to GYAR mutation in fiber) (human adenovirus 5 (HAdV-5) | human adenovirus 64 (HAdV-64)) (UniProt P04133). The description is as above.
Assay [10] addresses HAdV-5 virion (E1/E3-deleted, replication-defective HAdV-5 vector with an eGFP cassette) (human adenovirus 5 (HAdV-5)) (UniProt P04133). The assay is described as above.
Assay [11] deals with hexon HVR1 chimera virion (HAdV-5 with hexon HVR1 replaced by that of HAdV-64) (human adenovirus 5 (HAdV-5) | human adenovirus 64 (HAdV-64)) (UniProt P04133). Described as above.

As to ATCYCRTGRCATRESLSGVCEISGRLYRLCCR (not fully specified; cysteine pairing not given here) [Human defensin 5], the infectivity on A549 cells of virus incubated with 5 μM or 10 μM HD5 (protocol 1) in [1] fell in the range of 4 to 5 fold. Moreover, the HD5 IC50 of infection on A549 cells, against HAdV-5 (fold over HAdV-5) in assay [2] was found to be 5. This molecule displayed a binding of AF488-labeled virus to A549 cells after pre-incubation with 2.5, 5 and 10 μM HD5, fold change in GMF against no HD5 in assay [3] of 1.4 to 2.1 fold. The molecule further yielded an HD5 concentration at which 50% of fiber stays capsid-associated after heating to 49.3°C (fully associated at 20 μM HD5) in [4] of 5 µM. In addition, in assay [5], the HD5 concentration at which 50% of fiber stays capsid-associated after heating to 48°C (fully associated at 20 μM HD5) is 5 µM. The molecule further had an HD5 concentration at which 50% of fiber stays capsid-associated after heating to 49.3°C, against HAdV-5 (fully associated at 20 μM HD5) (fold lower than HAdV-5) in [6] of 2. Moreover, the HD5 concentration at which 50% of fiber stays capsid-associated after heating to 48°C, against HAdV-5 (fully associated at 20 μM HD5) (fold higher than HAdV-5) in assay [7] is over 2. Moreover, the fold less HD5 bound per virion than to HAdV-5 (fold less than HAdV-5) worked out at 83 in assay [8] and 5 in [11]. Further, the fold more HD5 bound per virion than to HAdV-5 (fold more than HAdV-5) in assay [9] was determined as 2.3. This molecule also yielded a stoichiometry N (molecules of HD5 per virion) in [10] of 7090.
